# Source: the RNAGym collection of RNA variant scans (doi:10.1073/pnas.2313332121)
# B1: TPR t1 (parent)
# chain: GACCAAUCUGCCCUCAGAGCUCGAGAACAUCUUCGGAUGCAGAGGAGGCAGGCUUCGGUGGCGCGAUAGCGCCAACGUCCUCAACCUCCAAUGCAUCCCACCACAUGAUGAUGCCUGAAGAGCCUUGGUUUUUUG
# Variants of: B1
# Test: polymerase ribozyme fitness, log enrichment relative to wild type (log ratio); higher = more active; in vitro selection for triplet polymerase activity
# Summary of the method: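 One round of in vitro selection, in triplicate, was applied to PCR-built, transcribed mutant libraries of each subunit of a heterodimeric triplet polymerase ribozyme. The steps were annealing with a biotinylated primer, partner subunit and triplets, incubation frozen at −7 °C, gel excision of extended constructs, streptavidin-bead capture and RT-PCR. Fitness is the logarithm, base 2, of genotype enrichment over wild-type enrichment from inverse-variance-weighted replicate averages of Illumina-sequenced inputs and outputs, keeping genotypes with ≥10 input reads and ≥1 read per output.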
row,Variant,polymerase ribozyme fitness (log ratio)
1,U9A A84U U92A U116G U132C,-4.07
2,C80A U112A,-2.64
3,A2G C73U,-0.754
4,C72U A91U,-1.73
5,U9C C28G G52U,-3.99
6,C79G U92C,-3.03
7,G71A C79G,-3.16
8,C8G G19A C76A,-3.65
9,A18U C86A C89U C123U,-3.07
10,A26U C56A U59C,-4.4
11,G10U U109A,-4.67
12,A27U G127A,-4.51
13,C85G C115G U132A,-2.4
14,C72G G120C G128C,-3.07
15,G60A G61U U96G,-2.55
16,C8U G47C G57A U92C,-4.38
17,G71U A105C,-2.99
18,C97G C104U,-3.29
19,C12A G17U A46G C80G A84G C115A,-4.53
20,C4U G42A C114G,-3.21
21,C12U C28U C49U C82A,-3.01
22,C12A G44A C72G A100U,-2.22
23,C49U C70U,-1.33
24,A26G C70U,-2.78

row,Variant,polymerase ribozyme fitness (log ratio)
1,G47A C102U,-2.85
2,U9C C49A A91C C104U,-1.34
3,C40A A46G U55A C99U G120A,-4.32
4,G44A A100C G110A,-4.23
5,G60A U106G,-0.897
6,G58U A68G,-3.5
7,C76U C88U,-0.561
8,C12U G61A A84U,0.279
9,C4A A5G,-1.02
10,C49G C85G U116G,-3.63
11,C97U C114U,-2.99
12,A18C C72G,-3.9
13,C70G U87C,-4.17
14,U9C G19U U81C U130C,-3.09
15,A6U C72U U96C G117U,-3.88
16,C89U U92G,-1.82
17,G39U C88U C94U U106G A121C,-0.0673
18,G48A C101U,-2.29
19,A24G G48A C64U,-2.39
20,C49U C62G G71A,-1.5
21,C49U G61U,-0.402
22,C20U U96A,-2.25
23,G71A U81C C115U,-3.59
24,G69A C115G,-3.93

row,Variant,polymerase ribozyme fitness (log ratio)
1,G35U G42A,-6.8
2,U38C G42C U78A A84C,-3.16
3,G36A C114A,-2.96
4,G61A U112C,1.57
5,C11A A100C,-2.81
6,C12G C98U U133G,-1.82
7,C11A A46C G63A U131G,-2.39
8,C13A C28G C34A A84C G110C,-1.53
9,G93U U133C,-1.17
10,C12U A46G C62A U67C U112A U129G,-4.48
11,C62U C94U,-0.381
12,G63U U106C,-1.92
13,G17A G48C C124A G128A,-3.31
14,C49A C70U C80A U116C,-7.47
15,G39U G60U,-0.635
16,C86A G93U C115U,-4.53
17,U106A C124A G128A,0.53
18,G17A G63C U109A C115A,-6.25
19,C82G C123U,0.314
20,A27G U32G C62U U78G G120C,-6.42
21,C8A A74G,0.152
22,G36U G127A,-2.27
23,G93U A121U U131G,0.33
24,U54G C86U G117U,-2.55

row,Variant,polymerase ribozyme fitness (log ratio)
1,C4U U38G,-1.16
2,U7G G10A G39U G69C C101G G110C,-7.07
3,G52U C73G U92C C104U U116C U129A,-4.98
4,A18U C86G G113U,-4.47
5,G52U G61A C102U U126C,-3.23
6,C94A C102U,-4.66
7,G69C C86G A91U,-4.84
8,G44U C62U G63C,-2.59
9,C11U C34G C89U A105C U106A,-4.08
10,U21C A37U,0.0886
11,C73G C82U,-0.556
12,U92A G120U,-2.93
13,C8G C13U A16U G71A,-0.033
14,A37C G63C A74C,-3.35
15,C34A C82A,-2.72
16,G23U G42A A46U G69U U109A C123U,-5.99
17,U14C U21C G61A C101U,-3.37
18,C13A G71U A74G U109A,-6.36
19,G51A C82A,-4.73
20,C13U C88A A90C,-1.03
21,A16C C40U G52A U59G U112A,-1.53
22,G45U C56U A121U,0.651
23,G63U G93A C124A,0.423
24,A2G C8U U87A C89U C123A,1.08

row,Variant,polymerase ribozyme fitness (log ratio)
1,C64G U106A,-5.51
2,C94A G117C,-4.31
3,U55A G57A G71C G113A,-2.54
4,C28U C40A G120C,-2.59
5,A37U A43U C73A U96C A111C U112A,-4.83
6,C20G C115A,-3.94
7,U55G C62A A74U C102A,-5.52
8,U59A A90G C123U,1.4
9,G36U A84C C85G C86U,-2.86
10,C15G C40A,-3.83
11,G69U C70G U109A A111C,-5.41
12,U32C A41C,-1.24
13,A27U G122A,-4.26
14,A5U G47A,-1.21
15,C11G C49U G120C,1.52
16,U92A G117U,-4.95
17,A5C G39C C70U G113A G120A C123A,-2.68
18,C13G A41C,-3.32
19,U9G A50C,-0.315
20,C31G G39A G107C U133G,-2.1
21,A50U C70G,-4.57
22,C62U G113C C124A U133A,-2.07
23,C8G C20U C49U,-1.11
24,C15G C62G,-5

row,Variant,polymerase ribozyme fitness (log ratio)
1,C70A U81C,-2.67
2,C114A U133A G135C,-1.08
3,U9A C22U C49A C86A,-5.1
4,G10U A26G,-2.71
5,U9G C13U C89A G107A C114U,-1.8
6,A50G U54G A95C,-1.88
7,G36A G48A U112A U131C,0.386
8,G45A C53A U81C,-0.267
9,G93C G120A U130C,0.452
10,U78C U116G,-2.79
11,A37G G60C G117A,-1.95
12,C13U G47U G135U,-2.07
13,C8U C56U U96C,0.0221
14,C99U A111C,-2.83
15,A5G C8U C72G G110A,-1.25
16,G63U C70A,-0.179
17,C12U A16U C22G U38G G52C A111U,-3.72
18,G58U U81A C124A,1.33
19,C31U C73A A95C,-5.67
20,C88A U126A,-3.12
21,G69U C89U,-0.148
22,C8G C15U C70U,-0.473
23,G51C C79U,-3.54
24,C56G U96A C123G U130C,0.506

row,Variant,polymerase ribozyme fitness (log ratio)
1,C79U A118C,-2.46
2,C3U C8A A16U U33A G44A G120C,-6.36
3,U38A U54G U112C G120A,-0.498
4,U9C G10A,0.0311
5,G19U U96G C114A,1.12
6,U9G G110C,-4.11
7,U7A C20U G120U,-0.3
8,A83C C115G,-1.92
9,U14C G61U A75C A105C,-3.69
10,U9G A29G,-1.35
11,C3A C40A G47A G60A A75U C86U C97U C123A U132A,-1.07
12,C72A C79A,-0.505
13,C102A G113A,-2.68
14,A27G G61C C88G G128A,-7.26
15,U7G G39A C62G C114G,-6.04
16,G58A C101U G120U,-0.534
17,G45U A66C G93C U96C C115A,-4.28
18,G48U C53A C62U C82U U106A A108G,-1.03
19,G42A G45U C85A A111U,-5.93
20,C8U A50G C72G,-0.53
21,C76U C82A G120A,0.131
22,C70U G71A U130C,-1.13
23,C40A G127C,-2.27
